Target: VP3 (capping enzyme) (Rotavirus A, UniProt Q1WK45 1-835)
Test: BLI

GGCUUUUA (ssRNA) [biotinylated 8-mer ssRNA]
binding result: binds

Source: PMC7159914
